Source: patent publication US20180333482A1 (LOYOLA UNIVERSITY OF CHICAGO, published 2018)

Target: the molecule itself
Experiment: dynamic light scattering, self-association

B1: recombinant wild-type MHV nsp15 protein, SUMO-fusion protein purified from E. coli (enzyme)
chain: SLENVVYNLVNAGHFDGRAGELPCAVIGEKVIAKIQNEDVVVFKNNTPFPTNVAVELFAKRSIRPHPELKLFRNLNIDVCWSHVLWDYAKDSVFCSSTYKVCKYTDLQCIESLNVLFDGRDNGALEAFKKCRNGVYINTTKIKSLSMIKGPQRADLNGVVVEKVGDSDVEFWFAVRKDGDDVIFSRTGSLEPSHYRSPQGNPGGNRVGDLSGNEALARGTIFTQSRLLSSFTPRSEMEKDFMDLDDDVFIAKYSLQDYAFEHVVYGSFNQKIIGGLHLLIGLARRQQKSNLVIQEFVTYDSSIHSYFITDENSGSSKSVCTVIDLLLDDFVDIVKSLNLKCVSKVVNVNVDFKDFQFMLWCNEEKVMTFYPRLQ
notes: domain: nsp15; also called WT nsp15; WT MHV Nsp15; not shown: His-SUMO tag from the pET-His-SUMO vector
binding result: binds
